From publication PMC7320145, “Substrate Channeling via a Transient Protein-Protein Complex: The case of D-Glyceraldehyde-3-Phosphate Dehydrogenase and L-Lactate Dehydrogenase” (Scientific Reports, 2020)

How the values were obtained:
[1] = test system: NC(=O)C1=CN([C@@H]2O[C@H](COP(=O)(O)OP(=O)(O)OC[C@H]3O[C@@H](n4cnc5c(N)ncnc54)[C@H](O)[C@@H]3O)[C@@H](O)[C@H]2O)C=CC1; experiment: purified protein; format: biochemical, Sus scrofa; conditions: free NADH, 630 μM pyruvate, 50 mM Tris/HCl pH 7.4, 25 °C
[2] = test system: NC(=O)C1=CN([C@@H]2O[C@H](COP(=O)(O)OP(=O)(O)OC[C@H]3O[C@@H](n4cnc5c(N)ncnc54)[C@H](O)[C@@H]3O)[C@@H](O)[C@H]2O)C=CC1; experiment: purified protein; conditions: free NADH, 630 μM pyruvate, 50 mM Tris/HCl pH 7.4, 25 °C

Sequence of phLDH (porcine heart LDH) (Sus scrofa) (chain, as listed by the source): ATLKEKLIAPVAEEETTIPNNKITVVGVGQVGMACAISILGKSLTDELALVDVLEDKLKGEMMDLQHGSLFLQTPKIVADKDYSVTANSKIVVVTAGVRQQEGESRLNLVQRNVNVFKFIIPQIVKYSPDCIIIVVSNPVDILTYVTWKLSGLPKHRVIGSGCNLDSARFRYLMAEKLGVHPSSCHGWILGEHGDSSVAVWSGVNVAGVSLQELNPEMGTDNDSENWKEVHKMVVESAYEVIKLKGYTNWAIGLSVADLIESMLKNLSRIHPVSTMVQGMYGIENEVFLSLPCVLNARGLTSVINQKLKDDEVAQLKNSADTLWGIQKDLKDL

Question: For phLDH (porcine heart LDH) (Sus scrofa), which Km [1] is on record?
Answer: The Km was 7.8 ± 0.9 µM.

Question: With “rmLDH (rabbit muscle LDH) (Oryctolagus cuniculus)” as the substance, how does the Km [2] read?
Answer: The Km was 4.4 ± 0.4 µM.
